This is an account of results in article PMC3552326.

Where two headings read alike, the source gives them in different places.

For experiment [1], the target named is Dns136-α-synuclein (Y136C, dansyl-labelled) (human) (UniProt P37840). As to the kind of experiment: other fluorescence titration.
Experiment [2] concerns the target Dns100-α-synuclein (L100C, dansyl-labelled) (human) (UniProt P37840). Briefly: other fluorescence titration.
Experiment [3] addresses α-synuclein peptide residues 118–140 containing C136, dansyl-labelled (DnsC23) (human) (UniProt P37840). Briefly: other fluorescence titration.
Experiment [4] concerns the target Dns100-α-synuclein (L100C, dansyl-labelled) (human) (UniProt P37840). As to the kind of experiment: other fluorescence titration. The source holds these as a separate data set.
Experiment [5] deals with Dns136-α-synuclein (Y136C, dansyl-labelled) (human) (UniProt P37840). As to the kind of experiment: other fluorescence titration. The source holds these as a separate data set.
Experiment [6] has the same target. Briefly: other fluorescence titration. This is another data set of the same source.
For experiment [7], the target named is Dns100-α-synuclein (L100C, dansyl-labelled) (human) (UniProt P37840). Briefly: FRET or BRET. In general terms: Bioluminescence resonance energy transfer reports proximity on the nanometre scale.
The target of experiment [8] is Dns136-α-synuclein (Y136C, dansyl-labelled) (human) (UniProt P37840). As to the kind of experiment: FRET or BRET.

Turning to “glucocerebrosidase (taliglucerase alfa, recombinant GCase) (from UniProt P04062 40-533) (enzyme)”, the Kd – broadly, the free concentration of one partner at which half of the binding sites on the other are occupied at equilibrium, for simple one-to-one binding – in experiment [1] is 11 µM; in experiment [2] it was 1 µM; in experiment [3], 2 µM; in experiment [4], 40 µM; in experiment [5], 8 µM; in experiment [6] it was 1 µM. Besides, the <λ> shift in experiment [7] turned out to be 2 nm; in experiment [8] it was 6 nm.
